Publication PMC4609964, “Combination of six enzymes of a marine Novosphingobium converts the stereoisomers of β-O-4 lignin model dimers into the respective monomers” (Scientific Reports, 2015)

What was measured:
[1] = molecular target: T1, GST3 (Novosphingobium sp. MBES04, UniProt A0A0S6WZT0); test: conventional GST assay (specific activity); format: biochemical; details: glutathione co-substrate
T1 construct: gene MBENS4_2527; N-terminal His6 tag (pRSET A), E. coli BL21(DE3), His-tag resin purified
T1 sequence (A0A0S6WZT0 1-226): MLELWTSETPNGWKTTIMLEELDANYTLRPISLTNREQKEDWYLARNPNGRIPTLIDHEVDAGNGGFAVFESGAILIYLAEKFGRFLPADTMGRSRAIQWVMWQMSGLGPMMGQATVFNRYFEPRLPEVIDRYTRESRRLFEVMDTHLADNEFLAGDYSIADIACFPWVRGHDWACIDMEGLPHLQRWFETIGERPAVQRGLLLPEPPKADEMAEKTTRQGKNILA

[2] = molecular target: T2, GST6 (Novosphingobium sp. MBES04, UniProt A0A0S6WVQ1); test: chiral HPLC of glutathione removal to GHP; format: biochemical; details: […] °C, […] h, both conjugates (formed by GST4 and by GST5)
T2 construct: gene MBENS4_2530; N-terminal His6 tag (pRSET A), E. coli BL21(DE3), His-tag resin purified
T2 sequence (A0A0S6WVQ1 1-283): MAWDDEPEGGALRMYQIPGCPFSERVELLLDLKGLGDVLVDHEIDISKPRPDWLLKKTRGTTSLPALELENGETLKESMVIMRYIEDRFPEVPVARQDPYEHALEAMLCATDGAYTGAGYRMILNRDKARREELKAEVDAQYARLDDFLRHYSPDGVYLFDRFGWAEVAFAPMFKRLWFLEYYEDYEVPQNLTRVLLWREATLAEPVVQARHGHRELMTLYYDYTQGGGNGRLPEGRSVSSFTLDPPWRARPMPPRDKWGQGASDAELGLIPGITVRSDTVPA

[3] = molecular target: T1, GST3; test: chiral HPLC of glutathione removal to GHP; format: biochemical; details: glutathione 2.0 mM; 25 °C, 16 h; both conjugates (formed by GST4 and by GST5)
[4] = system: COc1cc(C(=O)C(CO)Oc2ccccc2OC)ccc1O; test: purified protein; details: GSH co-substrate, optimal pH 7−8, 40 °C, 1:1 β(R)/β(S) mixture (acts on β(R))
[5] = system: COc1ccc(C(=O)C(CO)Oc2ccccc2OC)cc1OC; test: purified protein; details: GSH co-substrate, optimal pH 7−8, 40 °C (determined with MPHPV)
[6] = system: COc1ccc(C(O)C(CO)Oc2ccccc2OC)cc1OC; test: purified protein; details: NAD cofactor
[7] = substrate: COc1cc(C(=O)C(CO)Oc2ccccc2OC)ccc1O; test: purified protein; format: biochemical, Novosphingobium sp. MBES04; details: GSH co-substrate, optimal pH 9, 35 °C, 1:1 β(R)/β(S) mixture (acts on β(S))
[8] = substrate: COc1ccc(C(=O)C(CO)Oc2ccccc2OC)cc1OC; test: purified protein; format: biochemical, Novosphingobium sp. MBES04; details: GSH co-substrate, optimal pH 9, 35 °C (determined with MPHPV)
[9] = optimal conditions (pH 9, 15 °C)
[10] = optimal conditions (pH 9–10, 30 °C)

O=[N+]([O-])c1ccc(Cl)c([N+](=O)[O-])c1 [CDNB]
conventional GST assay (specific activity) [1]: the activity of GST3 towards 1-chloro-2,4-dinitrobenzene (CDNB)

COc1cc(C(=O)C(CO)SC[C@H](NC(=O)CC[C@H](N)C(=O)O)C(=O)NCC(=O)O)ccc1O (stereo partly drawn) [GS-GHP]
chiral HPLC of glutathione removal to GHP [2]: the removal of glutathione from both glutathione conjugates of GHP produced by GST4 and GST5 | chiral HPLC of glutathione removal to GHP [3]: the removal of glutathione from both glutathione conjugates of GHP produced by GST4 and GST5

GST5 (Novosphingobium sp. MBES04)
Km [4]: 290 µM | kcat [4]: 0.0583 s⁻¹ | kcat/Km [4]: 200 M⁻¹ s⁻¹ | Km [5]: 780 µM | kcat [5]: 0.158 s⁻¹ | kcat/Km [5]: 200 M⁻¹ s⁻¹

SDR3 (Novosphingobium sp. MBES04)
Km [6, 9]: 1500 µM | kcat [6, 9]: 0.065 s⁻¹ | kcat/Km [6, 9]: 41.7 M⁻¹ s⁻¹

SDR5 (Novosphingobium sp. MBES04)
Km [6, 10]: 1100 µM | kcat [6, 10]: 23.3 s⁻¹ | kcat/Km [6, 10]: 21700 M⁻¹ s⁻¹

B1: GST4 (Novosphingobium sp. MBES04) (protein)
chain: MLTLYSFGPGANSLKPLLALYEKGLEFTPRFVDPTKFEHHEEWFKKINPRGQVPALDHDGNVITESTVICEYLEDAFPDAPRLRPTDPVQIAEMRVWTKWVDEYFCWCVSTIGWERGIGPMARALSDEEFEEKVKRIPIPEQQAKWRSARAGFPKEVLDEEMRKIRVSIDRLEKRLSESTWLAGEDYTLADICNFAIANGMEKGFDDIVNTAATPNLVAWIERINARPACIEMFAKSKSEFAARKPFAKSEEQAQA
notes: N-terminal His6 tag (pRSET A), E. coli BL21(DE3), His-tag resin purified
Km [7]: 470 µM | kcat [7]: 0.75 s⁻¹ | kcat/Km [7]: 1580 M⁻¹ s⁻¹ | Km [8]: 550 µM | kcat [8]: 0.3 s⁻¹ | kcat/Km [8]: 533 M⁻¹ s⁻¹
